Results on eight substances are retold here after paper PMC7660905.

The target in experiment [1] is AM14. The experiment in a line: SPR. The following applies: read off a plot; for Kd: parent: est. 100 pM; for ratio to parent: parent: est. 1.0.
Experiment [2] concerns the target D25 (human monoclonal antibody to site Ø of PreF). The experiment in a line: SPR. As to conditions: read off a plot; for Kd: parent: est. 54 pM; for ratio to parent: parent: est. 1.0.
Experiment [3] concerns the target D25 IgG (human monoclonal antibody to site Ø of PreF) (human). The experiment in a line: SPR; Biacore T200, single cycle kinetics, IgG captured ([…]; 25 °C, HBS-EP; 1:1 binding model. A general note: SPR reads the build-up and loss of mass on a sensor chip optically.
Experiment [4] shares this target. Put plainly: SPR; Biacore T200, single cycle kinetics, IgG captured (100-200 RU) by human Fc binder on a CM5 chip; PreF injected at 0-20 nM, 120 s association, 600 s dissociation; 25 °C, HBS-EP; 1:1 binding model.

As usually defined, the Kd is the concentration at which binding is half-saturated. As a reminder, the koff is the first-order rate constant of dissociation. Higher therefore signals fast dissociation. As a reminder, the kon is the second-order rate constant of association. Low values mean slow association, high ones fast association.

Regarding “DS-Cav1 (stabilized prefusion RSV glycoprotein F) (from UniProt P03420) K65A”, in experiment [1], the Kd came out at 0.088 nM. In experiment [2], the Kd is 0.042 nM and the ratio to parent turned out to be 0.75.

As for “DS-Cav1 (stabilized prefusion RSV glycoprotein F) (from UniProt P03420) N276S”, in experiment [1], the Kd was 0.078 nM and the ratio to parent turned out to be 0.75. In addition, in experiment [2], the dissociation constant (Kd) was 0.021 nM and the ratio to parent was determined as 0.4.

On to “DS-Cav1 (stabilized prefusion RSV glycoprotein F) (from UniProt P03420) D200N”, for which, in experiment [1], the dissociation constant (Kd) is 0.12 nM and the ratio to parent was 1.2. Further, in experiment [2], the Kd is 0.022 nM and the ratio to parent is 0.4.

Turning to “DS-Cav1 (prefusion-stabilized RSV fusion glycoprotein F), trimeric PreF (from UniProt P03420) (complex)”, the dissociation constant (Kd) in experiment [3] amounted to 0.0534 nM.

With “DS-Cav1 (stabilized prefusion RSV glycoprotein F) (from UniProt P03420) D200N; N276S”, in experiment [1], the Kd turned out to be 0.094 nM and the ratio to parent is 0.95. In experiment [2], the equilibrium dissociation constant (Kd) came to 0.057 nM and the ratio to parent was determined as 1.

As for “DS-Cav1 (stabilized prefusion RSV glycoprotein F) (from UniProt P03420) N63A; K65A”, the dissociation constant (Kd) in experiment [1] is 0.083 nM. Moreover, in experiment [2], the dissociation constant Kd is 0.016 nM and the ratio to parent was 0.3.

For the substance “DS-Cav1 (stabilized prefusion RSV glycoprotein F) (from UniProt P03420) N63A”, the figures for the equilibrium dissociation constant (Kd) in experiment [1] and in experiment [2] were 0.094 nM and 0.025 nM, respectively. The ratio to parent in experiment [1] was determined as 0.95; in experiment [2], 0.45.

In experiment [4], monomeric form of PreF returned a Kd of 0.0977 nM, a koff of 3.75e-05 s⁻¹ and a kon of 384000 M⁻¹ s⁻¹.
